Measured values from US20220362348A1, “LACTOFERRIN, DERIVED PEPTIDE THEREOF AND METHOD THEREOF FOR INHIBITING AND/OR ALLEVIATING LIPID SYNTHESIS” (RENORIGIN INNOVATION INSTITUTE CO., LTD., priority 2021, published 2022).

Test system: Human sebocytes
Experiment: Neutral fat detection (Nile red staining, fluorescence intensity) in linoleic acid-induced sebocytes
Format: cell-based
Settings: for fluorescence intensity (lipid content, Nile red): FIG. 1 D, two days, negative control about 1.0
Protocol: Human sebocytes (Cat. No. 36079-01, Celprogen, Torrance, Calif., USA) were cultured in Dulbecco's Modified Eagle Medium (DMEM): Nutrient Mixture F-12 (DMEM/F12) purchased from Thermo Fisher Scientific Limited (Barrington, Ill., USA), 10% fetal bovine serum (FBS) purchased from Gibco, Grand Island, N.Y., USA and penicillin/streptomycin (100 IU/50 […]), incubated at 37° C. in the 5% CO2 atmosphere.
Human sebocytes were implanted in 24- or 96-well plates. After 24 hours of culture, the cells were divided into a negative control group, a positive control group and an experimental group. […] The treated human sebocytes were cultured for two days. Human sebocytes were fixed with 4% formaldehyde at room temperature. After 60 minutes of fixation, the cells were washed with PBS and stained with Nile Red solution (1 μg/ml in PBS) at 37° C. for 15 minutes. Next, the cells were washed and observed under a fluorescent microscope. Fluorescence intensity is measured with fluorometer Spectra Max i3.

B1: lactoferrin (protein)
chain: APRKNVRWCTISQPEWFKCRRWQWRMKKLGAPSITCVRRAFALECIRAIAEKKADAVTLDGGMVFEAGRDPYKLRPVAAEIYGTKESPQTHYYAVAVVKKGSNFQLDQLQGRKSCHTGLGRSAGWIIPMGILRPYLSWTESLEPLQGAVAKFFSASCVPCIDRQAYPNLCQLCKGEGENQCACSSREPYFGYSGAFKCLQDGAGDVAFVKETTVFENLPEKADRDQYELLCLNNSRAPVDAFKECHLAQVPSHAVVARSVDGKEDLIWKLLSKAQEKFGKNKSRSFQLFGSPPGQRDLLFKDSALGFLRIPSKVDSALYLGSRYLTTLKNLRETAEEVKARYTRVVWCAVGPEEQKKCQQWSQQSGQNVTCATASTTDDCIVLVLKGEADALNLDGGYIYTAGKCGLVPVLAENRKSSKHSSLDCVLRPTEGYLAVAVVKKANEGLTWNSLKDKKSCHTAVDRTAGWNIPMGLIVNQTGSCAFDEFFSQSCAPGADPKSRLCALCAGDDQGLDKCVPNSKEKYYGYTGAFRCLAEDVGDVAFVKNDTVWENTNGESTADWAKNLNREDFRLLCLDGTRKPVTEAQSCHLAVAPNHAVVSRSDRAAHVKQVLLHQQALFGKNGKNCPDKFCLFKSETKNLLFNDNTECLAKLGGRPTYEEYLGTEYVTAIANLKKCSTSPLLEACAFLTR
modifications: bovine lactoferrin
lipid content reduced compared with positive control group (LA) (FIG. 1, 0.1 mM LA + 100 to 400 μg/mL lactoferrin): 25% | fluorescence intensity (lipid content, Nile red) (0.1 mM LA + 100 μg/mL lactoferrin): about 1.5 | fluorescence intensity (lipid content, Nile red) (0.1 mM LA + 200 μg/mL lactoferrin): about 1.5 | fluorescence intensity (lipid content, Nile red) (0.1 mM LA + 400 μg/mL lactoferrin): about 1.5 | concentration dependence of inhibition of LA-induced lipid content (FIGS. 1-4, lactoferrin 100-400 μg/mL, peptides 25-100 μg/mL): dose-dependent manner
